Results published in paper PMC7480081.

Biological target: T1, Csa3b (Sulfolobus islandicus REY15A) (UniProt F0NH47)
T1 sequence: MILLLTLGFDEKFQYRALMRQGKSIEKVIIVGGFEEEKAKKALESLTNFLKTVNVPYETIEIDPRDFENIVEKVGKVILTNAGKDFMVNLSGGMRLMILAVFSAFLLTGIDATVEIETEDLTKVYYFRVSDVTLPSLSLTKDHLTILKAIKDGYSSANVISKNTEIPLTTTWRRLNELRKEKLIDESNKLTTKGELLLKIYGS
Experiment: LSPR
Details: DNA immobilized, LSPR (OpenSPR, COOH chip, 20 uL/min, 5 min, 1:1 fit; running buffer not stated), DNase I footprinting: 400 ng probe in 40 uL, 30 min at 30 C, DNase I 1 min at …

Substance: csa1 promoter, full-length (LSPR)
- Kd (20 uM 5'-CAAAA-3'): 300 nM
- Kd (no CAAAA): 4240 nM

Substance: cmr4 (cmr4-alpha) promoter (LSPR)
- Kd: 17.2 nM
